{"source": "paper PMC2910095", "about": "(Biochemistry, 2010)", "molecules": {"B1": {"name": "p88 VacA purified from H. pylori broth culture supernatant (natural protein)", "chain": "AFFTTVIIPAIVGGIATGTAVGTVSGLLGWGLKQAEEANKTPDKPDKVWRIQAGKGFNEFPNKEYDLYKSLLSSKIDGGWDWGNAATHYWIKGGQWNKLEVDMKDAVGTYKLSGLRNFTGGDLDVNMQKATLRLGQFNGNSFTSYKDSADRTTRVDFNAKNILIDNFLEINNRVGSGAGRKASSTVLTLQASEGITSSKNAEISLYDGATLNLASNSVKLNGNVWMGRLQYVGAYLAPSYSTINTSKVTGEVNFNHLTVGDHNAAQAGIIASNKTHIGTLDLWQSAGLNIIAPPEGGYKDKPNNTPSQSGAKNDKQESSQNNSNTQVINPPNSTQKTEVQPTQVIDGPFAGGKDTVVNIDRINTKADGTIKVGGFKASLTTNAAHLNIGKGGVNLSNQASGRTLLVENLTGNITVDGPLRVNNQVGGYALAGSSANFEFKAGVDTKNGTATFNNDISLGRFVNLKVDAHTANFKGIDTGNGGFNTLDFSGVTNKVNINKLITASTNVAVKNFNINELIVKTNGVSVGEYTHFSEDIGSQSRINTVRLETGTRSIFSGGVKFKSGEKLVIDEFYYSPWNYFDARNIKNVEITRKFASSTPENPWGTSKLMFNNLTLGQNAVMDYSQFSNLTIQGDFINNQGTINYLVRGGKVATLNVGNAAAMMFNNDIDSATGFYKPLIKINSAQDLIKNTEHVLLKAKIIGYGNVSTGTNGISNVNLEEQFKERLALYNNNNRMDTCVVRNTDDIKACGMAIGNQSMVNNPDNYKYLIGKAWKNIGISKTANGSKISVYYLGNSTPTENGGNTTNLPTNTTNNARFASYA"}}, "key": {"[1]": {"target": "recombinant refolded VacA p33 domain (Helicobacter pylori strain 60190)", "experiment": "SEC"}, "[2]": {"target": "purified recombinant VacA p55 domain (Helicobacter pylori strain 60190)", "experiment": "SEC"}, "[3]": {"target": "p33/p55 complex (86 kDa, monomeric complex) (Helicobacter pylori strain 60190)", "experiment": "negative-stain electron microscopy"}, "[4]": {"target": "the molecule itself", "experiment": "negative-stain electron microscopy"}}, "note": "Several values for one entry are separate records, joined by “and”; a condition that tells them apart may be missing. Equal entries are not always repeated.", "data": [{"molecule": "recombinant refolded VacA p33 domain (domain or fragment)", "values": [{"measurement": "stoichiometry N", "setting": "[1]", "result": 3}, {"measurement": "stoichiometry N", "setting": "[2]", "result": 1}]}, {"molecule": "p33/p55 complex (86 kDa, monomeric complex)", "values": [{"measurement": "stoichiometry N", "setting": "[3]", "result": "6 and 7 and 12"}]}, {"molecule": "B1", "values": [{"measurement": "stoichiometry N", "setting": "[4]", "result": "6 and 7 and 12 to 14 (2×)"}]}]}
